Molecular target: T1, Recombinant human ACSS2 (human, UniProt Q9NR19 1-701)
T1 construct: Recombinant human ACSS2, immobilised on a CM5 chip for SPR
Assay: SPR; Biacore 8K, 25 °C, HBS-EP running buffer; ACSS2 amine-coupled to a CM5 chip (5 µg/mL in 10 mM sodium acetate pH 5.5); AATF injected at 12.5-400 nM; multi-cycle, 120 s association, 120 s dissociation, 30 µL/min
Conditions: both partners purified

T1 sequence (Q9NR19 whole entry): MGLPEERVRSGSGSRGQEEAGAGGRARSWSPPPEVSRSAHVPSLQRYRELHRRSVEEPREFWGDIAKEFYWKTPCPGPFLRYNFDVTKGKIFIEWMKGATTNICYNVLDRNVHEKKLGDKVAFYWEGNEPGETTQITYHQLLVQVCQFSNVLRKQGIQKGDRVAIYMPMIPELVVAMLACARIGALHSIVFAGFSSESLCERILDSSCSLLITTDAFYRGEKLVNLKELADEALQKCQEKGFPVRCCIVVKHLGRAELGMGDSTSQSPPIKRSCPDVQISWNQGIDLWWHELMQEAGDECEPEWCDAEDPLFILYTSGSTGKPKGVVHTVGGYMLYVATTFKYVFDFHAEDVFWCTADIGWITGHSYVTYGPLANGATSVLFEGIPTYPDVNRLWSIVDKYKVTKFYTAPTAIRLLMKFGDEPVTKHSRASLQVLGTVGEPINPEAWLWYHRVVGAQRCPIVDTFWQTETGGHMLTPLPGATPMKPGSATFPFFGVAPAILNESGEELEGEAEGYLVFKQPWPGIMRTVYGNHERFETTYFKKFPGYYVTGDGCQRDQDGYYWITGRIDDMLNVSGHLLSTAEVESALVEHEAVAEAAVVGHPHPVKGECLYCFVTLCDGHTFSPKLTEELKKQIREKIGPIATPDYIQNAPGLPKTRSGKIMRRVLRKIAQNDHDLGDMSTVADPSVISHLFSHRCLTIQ

B1: Recombinant human AATF (natural protein, UniProt Q9NY61 1-560, looked up)
chain: MAGPQPLALQLEQLLNPRPSEADPEADPEEATAARVIDRFDEGEDGEGDFLVVGSIRKLASASLLDTDKRYCGKTTSRKAWNEDHWEQTLPGSSDEEISDEEGSGDEDSEGLGLEEYDEDDLGAAEEQECGDHRESKKSRSHSAKTPGFSVQSISDFEKFTKGMDDLGSSEEEEDEESGMEEGDDAEDSQGESEEDRAGDRNSEDDGVVMTFSSVKVSEEVEKGRAVKNQIALWDQLLEGRIKLQKALLTTNQLPQPDVFPLFKDKGGPEFSSALKNSHKALKALLRSLVGLQEELLFQYPDTRYLVDGTKPNAGSEEISSEDDELVEEKKQQRRRVPAKRKLEMEDYPSFMAKRFADFTVYRNRTLQKWHDKTKLASGKLGKGFGAFERSILTQIDHILMDKERLLRRTQTKRSVYRVLGKPEPAAQPVPESLPGEPEILPQAPANAHLKDLDEEIFDDDDFYHQLLRELIERKTSSLDPNDQVAMGRQWLAIQKLRSKIHKKVDRKASKGRKLRFHVLSKLLSFMAPIDHTTMNDDARTELYRSLFGQLHPPDEGHGD
notes: Recombinant human AATF, the analyte in SPR; also called Che-1
Q: B1 was tested. Which Kd did it give?
A: Its Kd is 33.3 ± 1.7 nM.

Source: PMC12561415, “ACSS2/AATF Drives Soluble FasL‐Mediated CD8^+ T Cell Apoptosis in Pancreatic Neuroendocrine Tumors” (Advanced Science, 2025)
